According to article PMC2836971:

Molecular target: Myc-tagged Emi2-C RL^+ mutant (only the RL motif intact; D-box and ZBR mutated) (Xenopus) (UniProt Q8AXF4)
Test: co-IP

Substance: Cdc27 (APC/C core subunit), endogenous in Xenopus CSF extracts (natural protein)
- percent less strongly associated with Cdc27 than the WT: 50%
